Paper doi:10.1101/2025.09.18.675241 (bioRxiv, 2025)
Where a chain is given by its changes, count along the chain named. Names and notes keep the numbering of the source.

Experiments:
[1] = target: FAM171A2 Ecto-AP (human) (UniProt A8MVW0); test: ELISA
[2] = target: FAM171A2 ectodomain (K30-T315), Fc cleaved off (human) (UniProt A8MVW0); test: AUC
[3] = target: FAM171A2 ectodomain (K30-T315), Fc cleaved off (human) (UniProt A8MVW0); test: SEC-MALS
[4] = target: FAM171A2 ectodomain (K30-T315), Fc cleaved off (human) (UniProt A8MVW0); test: SEC-SAXS
[5] = target: the molecule itself; test: AUC
[6] = target: the molecule itself; test: AUC; remark: listed apart in the source
[7] = target: the molecule itself; test: SEC-MALS
[8] = target: the molecule itself; test: SEC
[9] = target: T1, FAM171A1 Ecto-AP (human, UniProt Q5VUB5 23-303); test: ELISA
T1 sequence: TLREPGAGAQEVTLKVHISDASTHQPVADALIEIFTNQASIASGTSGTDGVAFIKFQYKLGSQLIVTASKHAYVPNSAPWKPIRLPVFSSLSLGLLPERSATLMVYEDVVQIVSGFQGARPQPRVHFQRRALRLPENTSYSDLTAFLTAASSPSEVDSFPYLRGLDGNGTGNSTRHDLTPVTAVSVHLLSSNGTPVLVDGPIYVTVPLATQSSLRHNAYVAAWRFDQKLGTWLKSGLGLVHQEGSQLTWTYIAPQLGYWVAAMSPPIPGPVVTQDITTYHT

FAM171A2 Ecto-Fc (from UniProt A8MVW0 30-315) (Fc fusion)
Kd [1]: 389 nM

FAM171A2 ectodomain (K30-T315), Fc cleaved off (from UniProt A8MVW0 30-315) (domain or fragment)
percent of the mixture as trimer [2]: 75%
stoichiometry N [2]: 3
stoichiometry N [3]: 3
stoichiometry N [4]: 3

B1: FAM171A1 ectodomain (T23-T303), Fc cleaved off (domain or fragment)
chain: T1 sequence
modifications: four N-linked glycosylation sites occupied by Man5GlcNAc2 (from HEK293S GnTI- cells)
stoichiometry N [5]: 2.7 monomers
stoichiometry N [6]: 2.6 monomers
stoichiometry N [7]: 3

B2: FAM171A1 ectodomain Y241S (domain or fragment)
chain: T1 sequence with Y219S
modifications: introduced N-linked glycosylation site
stoichiometry N [8]: 3

B3: FAM171A1 ectodomain L255N (domain or fragment)
chain: T1 sequence with L233N
modifications: introduced N-linked glycosylation site
stoichiometry N [8]: 3

B4: FAM171A1 ectodomain Y241S/L255N (domain or fragment)
chain: T1 sequence with Y219S, L233N
modifications: two introduced N-linked glycosylation sites
stoichiometry N [8]: 3

B5: FAM171A1 Ecto-Fc (Fc fusion)
chain: T1 sequence
Kd [9]: 9 ± 2 nM
